Laboratory results published in article PMC4772974 (EMBO Reports, 2016).
One block for each molecule: values may come before it.

Key:
BBS4 = BBS4 (UniProt Q96RK4); assay: GFP-Trap co-IP, immunoblot; details: reference: EGFP-PCM1-WT*; sites S372
Cep290 = Cep290 (UniProt O15078); assay: GFP-Trap co-IP, immunoblot; details: reference: EGFP-PCM1-WT*; sites S372
PCM1 = PCM1 (UniProt Q15154); assay: RFP-Trap co-IP, mCherry-PCM1 with EGFP-PCM1; details: reference: mCherry-PCM1-WT* with EGFP-PCM1-WT*; sites S372
His‐PCM1 (a.a. 1–1,128) = target: T1, His‐PCM1 (a.a. 1–1,128) (human, UniProt Q15154 1-1128); assay: pull-down; MBP-Plk4 on Dynabeads Protein G coupled with anti-MBP antibody; 8 μg His-PCM1(1128) in 600 μl binding buffer (50 mM Tris-HCl pH 7.5, 200 mM NaCl, 2 mM MgCl2, 0.5 mg/ml BSA, 0.05% NP-40), 4°C, 2 h; Coomassie and anti-His blot; details: both partners purified
T1 sequence (looked up): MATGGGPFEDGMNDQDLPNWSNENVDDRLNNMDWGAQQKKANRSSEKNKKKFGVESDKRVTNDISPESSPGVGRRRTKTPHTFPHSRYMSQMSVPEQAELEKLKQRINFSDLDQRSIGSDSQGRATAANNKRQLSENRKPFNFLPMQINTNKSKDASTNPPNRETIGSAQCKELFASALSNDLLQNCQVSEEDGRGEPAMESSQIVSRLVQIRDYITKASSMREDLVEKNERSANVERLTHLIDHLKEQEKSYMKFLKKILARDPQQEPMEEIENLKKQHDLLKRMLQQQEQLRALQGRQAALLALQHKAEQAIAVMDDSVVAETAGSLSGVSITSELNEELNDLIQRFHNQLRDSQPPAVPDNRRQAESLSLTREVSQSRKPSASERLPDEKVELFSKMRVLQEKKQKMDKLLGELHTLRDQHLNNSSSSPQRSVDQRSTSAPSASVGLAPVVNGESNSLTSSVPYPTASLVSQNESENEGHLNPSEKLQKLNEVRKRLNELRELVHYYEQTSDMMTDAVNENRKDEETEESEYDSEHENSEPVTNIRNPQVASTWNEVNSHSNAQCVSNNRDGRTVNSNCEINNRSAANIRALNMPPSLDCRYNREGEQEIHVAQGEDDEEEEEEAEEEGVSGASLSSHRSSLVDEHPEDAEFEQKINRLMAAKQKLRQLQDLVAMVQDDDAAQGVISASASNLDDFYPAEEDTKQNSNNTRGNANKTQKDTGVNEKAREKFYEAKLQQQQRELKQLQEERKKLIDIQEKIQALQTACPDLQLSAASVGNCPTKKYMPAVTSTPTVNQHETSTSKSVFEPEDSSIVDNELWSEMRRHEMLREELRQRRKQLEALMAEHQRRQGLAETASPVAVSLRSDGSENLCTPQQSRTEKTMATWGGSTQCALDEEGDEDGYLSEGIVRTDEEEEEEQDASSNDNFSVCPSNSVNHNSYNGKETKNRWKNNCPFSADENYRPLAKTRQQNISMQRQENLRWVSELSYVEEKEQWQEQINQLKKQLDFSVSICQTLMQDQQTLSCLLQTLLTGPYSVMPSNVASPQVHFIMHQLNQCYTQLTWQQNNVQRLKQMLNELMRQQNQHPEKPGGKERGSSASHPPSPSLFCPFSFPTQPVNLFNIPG

binding against the reference (BBS4): weaker | binding against the reference (Cep290): weaker
Molecule: PCM1 (from UniProt Q15154) EGFP-PCM1-S372A*

binding against the reference (PCM1): weaker
Molecule: PCM1 (from UniProt Q15154) mCherry-PCM1-S372A* with EGFP-PCM1-WT*

binding result (His‐PCM1 (a.a. 1–1,128)): binds
B1: MBP‐Plk4‐WT (enzyme, UniProt O00444 1-970, looked up)
chain: MATCIGEKIEDFKVGNLLGKGSFAGVYRAESIHTGLEVAIKMIDKKAMYKAGMVQRVQNEVKIHCQLKHPSILELYNYFEDSNYVYLVLEMCHNGEMNRYLKNRVKPFSENEARHFMHQIITGMLYLHSHGILHRDLTLSNLLLTRNMNIKIADFGLATQLKMPHEKHYTLCGTPNYISPEIATRSAHGLESDVWSLGCMFYTLLIGRPPFDTDTVKNTLNKVVLADYEMPSFLSIEAKDLIHQLLRRNPADRLSLSSVLDHPFMSRNSSTKSKDLGTVEDSIDSGHATISTAITASSSTSISGSLFDKRRLLIGQPLPNKMTVFPKNKSSTDFSSSGDGNSFYTQWGNQETSNSGRGRVIQDAEERPHSRYLRRAYSSDRSGTSNSQSQAKTYTMERCHSAEMLSVSKRSGGGENEERYSPTDNNANIFNFFKEKTSSSSGSFERPDNNQALSNHLCPGKTPFPFADPTPQTETVQQWFGNLQINAHLRKTTEYDSISPNRDFQGHPDLQKDTSKNAWTDTKVKKNSDASDNAHSVKQQNTMKYMTALHSKPEIIQQECVFGSDPLSEQSKTRGMEPPWGYQNRTLRSITSPLVAHRLKPIRQKTKKAVVSILDSEEVCVELVKEYASQEYVKEVLQISSDGNTITIYYPNGGRGFPLADRPPSPTDNISRYSFDNLPEKYWRKYQYASRFVQLVRSKSPKITYFTRYAKCILMENSPGADFEVWFYDGVKIHKTEDFIQVIEKTGKSYTLKSESEVNSLKEEIKMYMDHANEGHRICLALESIISEEERKTRSAPFFPIIIGRKPGSTSSPKALSPPPSVDSNYPTRERASFNRMVMHSAASPTQAPILNPSMVTNEGLGLTTTASGTDISSNSLKDCLPKSAQLLKSVFVKNVGWATQLTSGAVWVQFNDGSQLVVQAGVSSISYTSPNGQTTRYGENEKLPDYIKQKLQCLSSILLMFSNPTPNFH
